Test results as given in publication PMC9228767, “Structural and Functional Characterization of the Holliday Junction Resolvase RuvC from Deinococcus radiodurans” (Microorganisms, 2022).

Tests used:
[1] = target: the molecule itself; assay: SEC; Superdex 75 10/300 GL column, recombinant DrRuvC; 4 °C; buffers in Supplementary Table S1
[2] = target: T1, DrRuvC (Deinococcus radiodurans, UniProt Q9RX75 1-179); assay: EMSA; 1 mM EDTA; 0-500 nM protein; 50 mM Tris-HCl pH 7.0, 100 mM NaCl, 1 mM EDTA, 1% glycerol, 50 nM 5'-FAM DNA, on ice 30 min, 5% native PAGE; settings: protein: recombinant; tags: N-terminal 6xHis (pET28a NdeI/BamHI); chain copies: 2; label: 5'-FAM on one strand; four-way junction, non-homologous core, immobile, 4 strands
T1 sequence: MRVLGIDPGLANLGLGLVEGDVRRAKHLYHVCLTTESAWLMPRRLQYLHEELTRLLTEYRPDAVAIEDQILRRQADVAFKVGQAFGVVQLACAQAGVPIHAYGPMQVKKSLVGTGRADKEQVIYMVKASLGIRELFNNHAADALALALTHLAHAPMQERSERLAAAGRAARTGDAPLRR

[3] = target: T1, DrRuvC; assay: EMSA; no stable shift up to 500 nM protein; 50 mM Tris-HCl pH 7.0, 100 mM NaCl, 1 mM EDTA, 1% glycerol, 50 nM 5'-FAM DNA, on ice 30 min, 5% native PAGE; settings: protein: recombinant, tags: N-terminal 6xHis (pET28a NdeI/BamHI), chain copies: 2, label: 5'-FAM on one strand
[4] = target: T1, DrRuvC; assay: EMSA; 1 mM EDTA; 0-500 nM protein; no significant difference from HJ-0X; 50 mM Tris-HCl pH 7.0, 100 mM NaCl, 1 mM EDTA, 1% glycerol, 50 nM 5'-FAM DNA, on ice 30 min, 5% native PAGE; settings: protein: recombinant; tags: N-terminal 6xHis (pET28a NdeI/BamHI); chain copies: 2; label: 5'-FAM on one strand; four-way junction, 12 bp homologous mobile core, 4 strands

B1: RuvC from Deinococcus radiodurans (DrRuvC), full-length (enzyme, UniProt Q9RX75 1-179, looked up)
chain: T1 sequence
notes: Holliday junction resolvase RuvC (DR_0440) of Deinococcus radiodurans, full length; has a C-terminal tail (residues 163-179); residues 1-154 of each monomer are seen in the crystal structure; Cloned into pET28a between NdeI and BamHI; the His tag is said to be on the protein used for crystallisation; also called DR_0440; source: E. coli BL21 (DE3), purified (nickel, desalting, Heparin ion …)
[1]
  stoichiometry N: 2

B2: HJ-0X (structured_DNA)
DNA 1: CCACCAGAAACACGCCACAGTTTTTGTTTTGATTGCGAGGCCGTCCTACC
DNA 2: GGTAGGACGGCCTCGCAATCAAAACTTTTTGAGCACGCGAGATGTCAACG
DNA 3: CGTTGACATCTCGCGTGCTCAAAAAAAAAACAGATGCGGAGTGAAGTTCC
DNA 4: GGAACTTCACTCCGCATCTGTTTTTAAAAACTGTGGCGTGTTTCTGGTGG
[2]
  binding result: binds

B3: duplex (dsDNA)
DNA 1: B2 DNA 1
DNA 2: GGTAGGACGGCCTCGCAATCAAAACAAAAACTGTGGCGTGTTTCTGGTGG
[3]; blunt
  binding result: no binding

B4: bulge (dsDNA)
DNA 1: B2 DNA 1
DNA 2: GGTAGGACGGCCTCGCAATCTTTTGTTTTTCTGTGGCGTGTTTCTGGTGG
[3]; internal unpaired bubble, blunt ends
  binding result: no binding

B5: flap (structured_DNA)
DNA 1: B2 DNA 1
DNA 2: B2 DNA 2
DNA 3: CGTTGACATCTCGCGTGCTCAAAAA
[3]; flap, 3 strands: S1 3' half with S4 5' half, S4 3' half with S5
  binding result: no binding

B6: Y-junction (structured_DNA)
DNA 1: B2 DNA 1
DNA 2: B2 DNA 2
DNA 3: CGTTGACATCTCGCGTGCTCAAAAAAAAAACTGTGGCGTGTTTCTGGTGG
[3]; three-way junction, 3 strands
  binding result: no binding

B7: HJ-12X (structured_DNA)
DNA 1: GACGCTGCCGAATTCTGGCTTGCTAGGACATCTTTGCCCACGTTGACCCA
DNA 2: TGGGTCAACGTGGGCAAAGATGTCCTAGCAATGTAATCGTCTATGACGTT
DNA 3: AACGTCATAGACGATTACATTGCTAGGACATGCTGTCTAGAGACTATCGA
DNA 4: TCGATAGTCTCTAGACAGCATGTCCTAGCAAGCCAGAATTCGGCAGCGTC
[4]
  binding result: binds
